Non-standard residues stand in square brackets, D forms with d. Met(O) = CS(=O)CC[C@H](N)C(=O)O
What was measured:
[1] = target: SNARE complex (VAMP, syntaxin, SNAP-25 bound to GST) (UniProt P60880); test: ELISA of SNARE complex formation (SNAP-25-GST, syntaxin, immobilized VAMP); compound at 0.5 mM
[2] = target: SNARE complex (VAMP, syntaxin, SNAP-25 bound to GST) (UniProt P60880); test: ELISA of SNARE complex formation (SNAP-25-GST, syntaxin, immobilized VAMP); compound at 2.5 mM
[3] = target: SNARE complex (VAMP, syntaxin, SNAP-25) (UniProt P60880); test: SDS-PAGE of SNARE complex (VAMP, syntaxin, SNAP-25), image analysis; compound at 1 mM
Sequence of SNARE complex (VAMP, syntaxin, SNAP-25) (P60880 whole entry, one chain of several): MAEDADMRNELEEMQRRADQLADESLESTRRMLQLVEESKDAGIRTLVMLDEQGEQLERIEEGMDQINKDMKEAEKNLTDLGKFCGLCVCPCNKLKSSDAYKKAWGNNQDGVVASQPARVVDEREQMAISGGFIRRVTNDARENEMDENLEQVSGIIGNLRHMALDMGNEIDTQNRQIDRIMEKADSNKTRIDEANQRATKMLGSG

[4] = target: SNARE complex (VAMP, syntaxin, SNAP-25) (UniProt P60880); test: SDS-PAGE of SNARE complex (VAMP, syntaxin, SNAP-25), image analysis; compound at 5 mM

Sequence of SNARE complex (VAMP, syntaxin, SNAP-25 bound to GST) (P60880 whole entry, one chain of several): as above

Row | Binder | % inhibition formation SNARE complex [1] [%] | % inhibition formation SNARE complex [2] [%] | % inhibition formation SNARE complex [3] [%] | % inhibition formation SNARE complex [4] [%]
1 | Ac-NHLKNWM-NH2 [Ac-SEQ ID NO: 31-NH2] | 26 | 59 |  | 
2 | Ac-EHFLQWM-NH2 [Ac-SEQ ID NO: 30-NH2] | 24 | 71 |  | 
3 | Ac-EDLKRWM-NH2 [Ac-SEQ ID NO: 14-NH2] | 43 | 67 | 83 | 100
4 | Ac-DHFLNWM-NH2 [Ac-SEQ ID NO: 34-NH2] | 27 | 85 | 14 | 59
5 | Ac-QHLHNVM-NH2 [Ac-SEQ ID NO: 3-NH2] | 31 | 64 |  | 
6 | Ac-DHFLDWM-NH2 [Ac-SEQ ID NO: 25-NH2] | 40 | 71 | 83 | 100
7 | Ac-QDFLHWM-NH2 [Ac-SEQ ID NO: 2-NH2] | 26 | 64 | 37 | 80
8 | Ac-NHFLNWM-NH2 [Ac-SEQ ID NO: 15-NH2] | 48 | 42 | 50 | 100
9 | Ac-NHLKHWM-NH2 [Ac-SEQ ID NO: 32-NH2] |  | 19 |  | 
10 | Ac-NDLKDWM-NH2 [Ac-SEQ ID NO: 23-NH2] | 10 | 60 |  | 
11 | Ac-RHFLQWM-NH2 [Ac-SEQ ID NO: 13-NH2] |  | 20 |  | 
12 | Ac-DHFQQRM-NH2 [Ac-SEQ ID NO: 24-NH2] | 41 | 55 | 48 | 100
13 | Ac-EELKRWM-NH2 [Ac-SEQ ID NO: 116-NH2] |  | 69 |  | 
14 | Ac-DHFLDW[Met(O)]-NH2 [Ac-SEQ ID NO: 56-NH2] | 9 |  |  | 
15 | Ac-QHLKEWM-NH2 [Ac-SEQ ID NO: 12-NH2] | 20 | 71 |  | 
16 | Ac-EHLKKWM-NH2 [Ac-SEQ ID NO: 8-NH2] | 11 | 44 |  | 
17 | Ac-EHLKQWM-NH2 [Ac-SEQ ID NO: 1-NH2] | 33 | 63 | 59 | 100
18 | Ac-ENLKRWM-NH2 [Ac-SEQ ID NO: 117-NH2] |  | 65 |  | 
19 | Ac-QHLKNWM-NH2 [Ac-SEQ ID NO: 27-NH2] |  | 14 |  | 
20 | Ac-DHLKKWM-NH2 [Ac-SEQ ID NO: 22-NH2] | 18 | 72 |  | 

Reference: US20150098989A1
